Results taken from patent US20240309103A1 (Regeneron, published 2024).

T1: mouse NPR1 extracellular domain expressed with a C-terminal mouse IgG2a (mNPR1-mFc) (mouse)
T1 chain: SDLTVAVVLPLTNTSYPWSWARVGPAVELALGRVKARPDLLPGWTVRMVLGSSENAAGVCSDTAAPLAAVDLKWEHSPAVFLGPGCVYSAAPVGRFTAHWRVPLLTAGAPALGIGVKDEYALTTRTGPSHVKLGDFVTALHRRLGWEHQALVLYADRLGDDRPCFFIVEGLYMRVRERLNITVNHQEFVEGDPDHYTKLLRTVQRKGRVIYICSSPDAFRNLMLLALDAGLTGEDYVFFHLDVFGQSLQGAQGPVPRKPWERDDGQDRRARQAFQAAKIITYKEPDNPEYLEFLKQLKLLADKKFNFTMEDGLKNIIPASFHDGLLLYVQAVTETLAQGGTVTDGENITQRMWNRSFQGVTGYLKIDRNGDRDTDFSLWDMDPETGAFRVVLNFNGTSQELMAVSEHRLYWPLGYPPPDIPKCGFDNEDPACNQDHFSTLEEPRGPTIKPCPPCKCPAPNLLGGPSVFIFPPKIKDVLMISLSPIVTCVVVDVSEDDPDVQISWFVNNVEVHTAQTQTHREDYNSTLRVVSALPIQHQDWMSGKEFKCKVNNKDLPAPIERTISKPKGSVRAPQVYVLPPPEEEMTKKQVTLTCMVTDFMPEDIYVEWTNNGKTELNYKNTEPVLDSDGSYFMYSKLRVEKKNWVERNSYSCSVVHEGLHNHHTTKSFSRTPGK

T2: monkey NPR1 extracellular domain expressed with a C-terminal myc-myc-hexahistidine (mfNPR1-MMH) (monkey, UniProt P16066 33-473 (human entry))
T2 construct: also called monomeric monkey NPR1
T2 chain: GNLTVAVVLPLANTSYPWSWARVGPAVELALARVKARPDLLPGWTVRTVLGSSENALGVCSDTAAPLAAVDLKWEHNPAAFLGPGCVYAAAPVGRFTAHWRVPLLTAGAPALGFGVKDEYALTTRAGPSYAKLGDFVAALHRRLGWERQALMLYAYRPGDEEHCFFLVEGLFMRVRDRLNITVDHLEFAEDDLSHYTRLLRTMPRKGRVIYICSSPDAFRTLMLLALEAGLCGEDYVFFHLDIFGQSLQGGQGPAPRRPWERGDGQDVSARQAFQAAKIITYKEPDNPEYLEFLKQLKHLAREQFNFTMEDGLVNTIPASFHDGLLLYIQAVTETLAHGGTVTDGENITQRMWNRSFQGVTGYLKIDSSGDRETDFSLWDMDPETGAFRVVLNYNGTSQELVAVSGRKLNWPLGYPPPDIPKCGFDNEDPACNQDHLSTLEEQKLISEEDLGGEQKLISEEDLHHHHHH

T3: human NPR1 extracellular domain expressed with a C-terminal mouse IgG2a (hNPR1-mFc) (human)
T3 construct: also called hNPR1-Fc; human NPR1 dimer
T3 chain: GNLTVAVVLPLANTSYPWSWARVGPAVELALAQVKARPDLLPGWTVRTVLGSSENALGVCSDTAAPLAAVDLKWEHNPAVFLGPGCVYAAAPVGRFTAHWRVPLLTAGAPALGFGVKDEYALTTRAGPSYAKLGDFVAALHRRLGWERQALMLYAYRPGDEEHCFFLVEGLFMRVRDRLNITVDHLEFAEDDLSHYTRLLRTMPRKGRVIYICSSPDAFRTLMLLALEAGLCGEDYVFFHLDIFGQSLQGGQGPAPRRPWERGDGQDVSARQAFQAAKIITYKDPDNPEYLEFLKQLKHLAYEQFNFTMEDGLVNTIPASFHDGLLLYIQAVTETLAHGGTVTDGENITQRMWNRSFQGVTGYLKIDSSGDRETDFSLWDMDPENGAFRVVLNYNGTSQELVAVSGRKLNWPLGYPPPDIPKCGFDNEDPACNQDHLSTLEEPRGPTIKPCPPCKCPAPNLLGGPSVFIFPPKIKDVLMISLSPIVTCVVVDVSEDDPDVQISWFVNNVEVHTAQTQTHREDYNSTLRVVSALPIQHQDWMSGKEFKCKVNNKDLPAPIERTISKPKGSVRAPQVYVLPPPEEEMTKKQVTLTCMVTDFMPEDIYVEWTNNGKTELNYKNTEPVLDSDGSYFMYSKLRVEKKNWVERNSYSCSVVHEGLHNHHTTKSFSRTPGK

B1: mAb25491 (antibody, V domains shown)
VH: QVQLVQSGAEVMKPGASVKVSCKASGYTFTGYYIHWVRQAPGQGLEWMGWITPNSGATNYAQKFQGRVTLTRDTSISTAYMELTRLKSDDTAVYYCARGGQLEFFYYYYGMDVWGQGTTVTVSS
VL: DIQMTQSPSSLSASAGDRVTITCRASQSIDSYLNWYQQKPGKAPKLLISATSGFQSGVPSRFSGSGSGTDFTLTISSLQPEDFGTYYCQQSYTTPITFGQGTRLEIK
B2: mAb25545 (antibody, V domains shown)
VH: QVQLVESGGGLVKPGGSLRLSCAASGFTFSDYHLSWIRQAPGKGLEWVSYIRSSGRTIDYAASVKGRFTISRDNAKNSLYLQMNSLRVEDTAVYYCARENWIVLKVYAGIVGAPLDQWGQGTLVTVSS
VL: not shown
B3: mAb25479 (antibody, V domains shown)
VH: QVQLVQSGAEVKKPGASVKVSCKASGYTFTGYYIHWVRQAPGQGLEWMGWINPNSIGTNYAQKFQGRVTLTRDTSISTAYMELSSLRSDDTAVYYCARGGSSSYYYYYYGMDVWGQGTTVTVSS
VL: DIQMTQSPSSLSASVGDRVTITCRASQSIDNYLNWYQQKPGKAPKLLIYVASSLQSGVPSRFSGSGSGTDFTLTISSLQPEDFATYYCQQSYSTPLTFGGGTKVEIK

Assays:
[1] = biological target: T1, mouse NPR1 extracellular domain …; assay: SPR, Tables 21 to 26
Description: (§1) Equilibrium dissociation constant (KD) for different NPR1 reagents binding to purified anti-NPR1 monoclonal antibodies (mAbs) were determined using a real-time surface plasmon resonance based Biacore 4000 biosensor. All binding studies were performed in 10 mM HEPES, 150 mM NaCl, 3 mM EDTA, and 0.05% v/v Surfactant Tween-20, pH 7.4 (HBS-ET) running buffer at 25° C. and 37° C. The Biacore CM5 sensor chip surface was first derivatized by amine coupling with either mouse anti-human Fc specific mAb (GE Healthcare, #BR100839) or goat anti-human Fcy specific polyclonal antibody (Jackson ImmunoResearch Laboratories, #BR-1008-39) to capture anti-NPR1 mAbs.

[2] = biological target: T4, human NPR1 extracellular domain expressed with a C-terminal myc-myc-hexahistidine (hNPR1-MMH) (human, UniProt P16066 33-473); assay: SPR, mAb captured, 25 C
T4 construct: also called hNPR.mmh; monomeric human NPR1
T4 sequence (P16066 other isoform, or with tags, fused parts or gaps): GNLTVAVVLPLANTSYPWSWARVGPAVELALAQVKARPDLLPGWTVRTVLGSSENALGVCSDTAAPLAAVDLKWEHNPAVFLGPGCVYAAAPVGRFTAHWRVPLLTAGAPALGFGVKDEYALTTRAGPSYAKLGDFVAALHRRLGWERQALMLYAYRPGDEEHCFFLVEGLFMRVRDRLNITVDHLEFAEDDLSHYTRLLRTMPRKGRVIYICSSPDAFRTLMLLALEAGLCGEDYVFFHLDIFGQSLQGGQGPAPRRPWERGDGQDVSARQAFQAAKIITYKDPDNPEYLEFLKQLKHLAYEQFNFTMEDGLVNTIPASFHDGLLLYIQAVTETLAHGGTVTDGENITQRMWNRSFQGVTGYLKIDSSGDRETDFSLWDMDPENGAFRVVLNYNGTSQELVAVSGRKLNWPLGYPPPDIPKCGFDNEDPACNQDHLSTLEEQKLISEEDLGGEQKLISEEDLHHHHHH
Description: as §1

[3] = biological target: T2, monkey NPR1 extracellular domain …; assay: SPR, mAb captured, 25 C
Description: as §1

[4] = biological target: T5, mouse NPR1 extracellular domain expressed with a C-terminal myc-myc-hexahistidine (mNPR1-MMH) (mouse, UniProt P18293 29-469); assay: SPR, mAb captured, 25 C
Description: as §1

[5] = biological target: T3, human NPR1 extracellular domain …; assay: SPR, mAb captured, 25 C
Description: as §1

[6] = biological target: T4, human NPR1 extracellular domain …; assay: SPR, mAb captured, 37 C
Description: as §1

[7] = biological target: T2, monkey NPR1 extracellular domain …; assay: SPR, mAb captured, 37 C
Description: as §1

[8] = biological target: T5, mouse NPR1 extracellular domain …; assay: SPR, mAb captured, 37 C
Description: as §1

[9] = biological target: T3, human NPR1 extracellular domain …; assay: SPR, mAb captured, 37 C
Description: as §1

Row | Binder | binding result [1] | 100 nM Ag Bound (RU) [2] | Kd [2] | koff [2] | kon [2] | t½ [2] | 100 nM Ag Bound (RU) [3] | Kd [3] | koff [3] | kon [3] | t½ [3] | 100 nM Ag Bound (RU) [4] | binding result [4] | 100 nM Ag Bound (RU) [5] | Kd [5] | koff [5] | kon [5] | 100 nM Ag Bound (RU) [7] | 100 nM Ag Bound (RU) [8] | 100 nM Ag Bound (RU) [9] | other results
1 | B1 | no binding | 37 RU | 37.6 nM | 0.000983 s⁻¹ | 26200 M⁻¹ s⁻¹ | 11.7 min | 81 RU | 30.5 nM | 0.00128 s⁻¹ | 42000 M⁻¹ s⁻¹ | 9 min | 0 RU | no binding (tested: 100 nM) | 36 RU | 1.24 nM | 0.000124 s⁻¹ | 101000 M⁻¹ s⁻¹ | 106 RU | 0 RU | 70 RU | t½ [5]: 92.8 min; 100 nM Ag Bound (RU) [6]: 51 RU; Kd [6]: 127 nM; koff [6]: 0.00453 s⁻¹; kon [6]: 35600 M⁻¹ s⁻¹; t½ [6]: 2.5 min; Kd [7]: 78.4 nM; koff [7]: 0.00457 s⁻¹; kon [7]: 58300 M⁻¹ s⁻¹; t½ [7]: 2.5 min; Kd [9]: 8.66 nM; koff [9]: 0.000363 s⁻¹; kon [9]: 41900 M⁻¹ s⁻¹; t½ [9]: 31.8 min
2 | B2 | no binding |  |  |  |  |  | 4 RU |  |  |  |  | 0 RU | no binding (tested: 100 nM) | 7 RU |  |  |  | 10 RU | 1 RU | 15 RU | 
3 | B3 | no binding | 16 RU | 482 nM | 0.00673 s⁻¹ | 14000 M⁻¹ s⁻¹ | 1.7 min | 41 RU | 246 nM | 0.00682 s⁻¹ | 27700 M⁻¹ s⁻¹ | 1.7 min | 0 RU | no binding (tested: 100 nM) | 26 RU | 22.4 nM | 0.000852 s⁻¹ | 38000 M⁻¹ s⁻¹ | 43 RU | 1 RU | 47 RU | t½ [5]: 13.6 min; 100 nM Ag Bound (RU) [6]: 16 RU; Kd [6]: 689 nM; koff [6]: 0.0157 s⁻¹; kon [6]: 22800 M⁻¹ s⁻¹; t½ [6]: 0.7 min; Kd [7]: 360 nM; koff [7]: 0.0142 s⁻¹; kon [7]: 39600 M⁻¹ s⁻¹; t½ [7]: 0.8 min; Kd [9]: 41.2 nM; koff [9]: 0.00139 s⁻¹; kon [9]: 33700 M⁻¹ s⁻¹; t½ [9]: 8.3 min
